Results reported in US20090092595A1, “Suppression of sPLA2-integrin binding for treating an inflammatory condition” (REGENTS OF THE UNIVERSITY OF CALIFORNIA, priority 2007, published 2009).

How the values were obtained:
integrin α4β1 = biological target: T1, integrin α4β1 (Homo sapiens, UniProt P05556+P13612); assay: Adhesion of α4-K562 cells (recombinant α4β1) to immobilized sPLA2-IIA; type: cell-based; conditions: compared with mock-transfected K562 cells
T1 construct: K562 cells have endogenous α5β1; expressed in transfected cells; host or cells: K562
Procedure: FIG. 5. sPLA2-IIA binding to integrin α4β1. a) Cells expressing recombinant α4β1 adhered to wt sPLA2-IIA better than cells expressing other recombinant integrins. We used transfected K562 cells clonally express different human integrins for adhesion assays. Low background adhesion to BSA was subtracted. […] Wells of 96-well microtiter plate were coated with VCAM-1 and FN-GST, and incubated with U937 cells (1×10^4 cells/plate) in the presence of the increasing concentrations of sPLA2-IIA for 1 h at 37° C. Adherent cells were quantified using endogenous phosphatase after gently rinsing the well to remove unbound cells. Data is shown as means+/−SEM of triplicate experiments. *P=0.0101 and **P<0.0001 by t-test. c) Amino acid sequence in the α4 subunit that is critical for VCAM-1 and CS-1 binding is also critical for sPLA2-IIA binding. CHO cells that clonally express wt or mutant α4 (Irie, A. et al., Embo J, 14(22): 5550-5556 (1995)) were used for adhesion assays. Data is shown as means+/−SEM of triplicate experiments. Similar results were obtained using K562 cells expressing α4 mutants (not shown).
Other methods We performed docking simulation of interaction between sPLA2-IIA and integrin αvβ3 using the AutoDock3 as previously described (Mori, S. et al., J Biol Chem, in press (2008)). […]

[1] = tested on: mock-transfected K562 cells; assay: Proliferation of mock-transfected K562 cells (MTS assay); type: cell-based, human; conditions: serum-starved 48 h, stimulated 48 h
Procedure: Cells were serum-starved for 48 h and stimulated with sPLA2-IIA for 48 h. Cell proliferation was determined by MTS assays. Data is shown as means+/−SEM of triplicate experiments. α4- and αvβ3-K562 cells proliferated faster than mock-K562 cells. […] Serum-starved cells were stimulated with wt or mutant sPLA2-IIA (0.5 μg/ml) for 48 h. Data is shown as means+/−SEM of triplicate experiments. α4-K562 and αvβ3-K562 cells grew faster than mock K562 cells with wt and H47Q sPLA2-IIA (*P<0.05 by t-test).
Cell proliferation and MAP kinase activation K562 cells and human monocytic lymphoma U937 cells were maintained in RPM11640 medium supplemented with 10% FCS. Cells were plated in 96-well plates (1×10^4 cells/well), and serum-starved for 48 h at 37° C. in 5% CO2 atmosphere. Cells were then treated with or without sPLA2-IIA in medium without serum for 48 h. Cell proliferation was determined by MTS assays using the Aqueous Cell Proliferation Assay Kit (Promega). For MAP kinase activation assays, cells were serum starved in RPMI1640 medium supplemented with 0.4% FCS for 24 h, and stimulated with Wt and mutant sPLA2-IIA (0.5 μg/ml) for 10 min at 37° C. ERK1/2 activation was measured as described (Mori, S. et al., J Biol Chem, in press (2008)).

T1 sequence (P13612 34-1032): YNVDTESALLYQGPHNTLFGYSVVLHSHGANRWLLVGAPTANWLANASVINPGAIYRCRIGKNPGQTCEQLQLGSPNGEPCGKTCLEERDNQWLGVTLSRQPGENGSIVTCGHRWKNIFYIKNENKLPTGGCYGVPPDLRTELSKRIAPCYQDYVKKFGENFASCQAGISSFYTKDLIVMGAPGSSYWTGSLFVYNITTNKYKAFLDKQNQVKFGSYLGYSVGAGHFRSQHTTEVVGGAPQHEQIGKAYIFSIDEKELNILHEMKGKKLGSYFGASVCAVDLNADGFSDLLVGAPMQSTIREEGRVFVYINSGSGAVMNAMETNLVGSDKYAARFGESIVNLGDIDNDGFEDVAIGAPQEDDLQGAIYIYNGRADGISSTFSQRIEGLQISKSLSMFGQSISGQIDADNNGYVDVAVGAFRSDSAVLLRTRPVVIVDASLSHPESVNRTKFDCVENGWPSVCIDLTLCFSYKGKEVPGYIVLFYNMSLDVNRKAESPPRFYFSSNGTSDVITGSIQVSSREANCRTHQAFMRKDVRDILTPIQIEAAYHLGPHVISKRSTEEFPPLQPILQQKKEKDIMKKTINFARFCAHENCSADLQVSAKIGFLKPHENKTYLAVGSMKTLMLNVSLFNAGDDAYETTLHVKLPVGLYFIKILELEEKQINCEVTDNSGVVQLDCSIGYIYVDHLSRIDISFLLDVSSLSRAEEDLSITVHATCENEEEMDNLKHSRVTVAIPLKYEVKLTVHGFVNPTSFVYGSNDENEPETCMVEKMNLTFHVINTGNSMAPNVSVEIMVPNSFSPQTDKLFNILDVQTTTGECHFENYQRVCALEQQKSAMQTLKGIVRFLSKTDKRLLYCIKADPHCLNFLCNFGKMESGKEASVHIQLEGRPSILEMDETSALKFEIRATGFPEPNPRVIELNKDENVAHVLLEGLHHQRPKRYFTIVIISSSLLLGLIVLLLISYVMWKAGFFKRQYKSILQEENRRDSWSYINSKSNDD
T1 sequence (P05556 21-798): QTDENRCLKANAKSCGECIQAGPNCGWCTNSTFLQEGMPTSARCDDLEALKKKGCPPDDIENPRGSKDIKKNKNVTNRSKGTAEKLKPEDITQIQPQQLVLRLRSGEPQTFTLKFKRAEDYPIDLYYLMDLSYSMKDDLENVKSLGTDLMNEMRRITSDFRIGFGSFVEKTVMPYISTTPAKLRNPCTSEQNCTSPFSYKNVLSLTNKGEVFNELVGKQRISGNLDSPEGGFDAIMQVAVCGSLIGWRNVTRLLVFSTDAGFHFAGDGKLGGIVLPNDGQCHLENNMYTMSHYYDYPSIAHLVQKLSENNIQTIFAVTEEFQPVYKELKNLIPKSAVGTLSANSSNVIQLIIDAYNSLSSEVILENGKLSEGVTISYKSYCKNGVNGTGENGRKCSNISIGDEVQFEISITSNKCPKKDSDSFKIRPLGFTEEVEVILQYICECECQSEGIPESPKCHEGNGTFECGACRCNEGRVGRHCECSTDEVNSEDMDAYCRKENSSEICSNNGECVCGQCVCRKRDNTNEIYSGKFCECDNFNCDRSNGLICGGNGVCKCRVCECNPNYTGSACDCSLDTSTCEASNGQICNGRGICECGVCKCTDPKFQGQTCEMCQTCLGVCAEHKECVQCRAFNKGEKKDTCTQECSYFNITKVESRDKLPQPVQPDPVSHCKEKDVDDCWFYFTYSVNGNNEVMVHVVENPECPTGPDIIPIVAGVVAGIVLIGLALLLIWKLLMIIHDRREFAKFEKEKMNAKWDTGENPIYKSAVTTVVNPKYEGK

B1: wt sPLA2-IIA: Secretory phospholipase A2 group IIA, wild type, recombinant from bacteria BL21, refolded (protein)
chain: NLVNFHRMIKLTTGKEAALSYGFYGCHCGVGGRGSPKDATDRCCVTHDCCYKRLEKRGCGTKFLSYKFSNSGSRITCAKQDSCRSQLCECDKAAATCFARNKTTYNKKYQYYSNKHCRGSTPRC
modifications: left off: small tags and cut ends
adhesion of α4-K562 cells to immobilized wt sPLA2-IIA (integrin α4β1): better than mock-transfected K562 cells | proliferation of mock-transfected K562 cells [1]: did not induce proliferation
